Patent US20170281764A1 (JN BIOSCIENCES, published 2017)

Tests used:
[1] = molecular target: T1, extracellular region of human TIGIT fused to the Fc region of human immunoglobulin gamma-1 chain (hTIGIT-Fc) (human); assay: ELISA, plate coated with 5 µg/ml hTIGIT-Fc
T1 construct: also called human TIGIT-Fc fusion protein; wild-type TIGIT-Fc
Experimental: Binding of HuTIG1-IgG1.AA to human TIGIT was examined by ELISA. An ELISA plate was coated with 5 μg/ml hTIGIT-Fc in PBS (100 μl/well) at 4° C. overnight, washed with Wash Buffer (PBS containing 0.05% Tween 20), and blocked with 200 μl/well of SuperBlock Blocking Buffer (Thermo Fisher Scientific). After washing wells with Wash Buffer, HuTIG1-IgG1.AA, starting at 2.5 μg/ml and serial 2-fold dilutions in SuperBlock Blocking Buffer, was added for binding to plate-bound human TIGIT. After incubating the ELISA plate for 1 hr at room temperature and washing with Wash Buffer, bound antibodies were detected with 100 μl/well of HRP-conjugated goat anti-human kappa chain polyclonal antibody (Southern Biotech), 1/2,000-diluted in ELISA Buffer. After incubating for 30 min at room temperature and washing with Wash Buffer, color development was initiated with 100 μl/well of ABTS substrate and stopped with 100 μl/well of 2% oxalic acid. Absorbance was read at 405 nm. […] The half maximal effective concentration (EC₅₀) of HuTIG1-IgG1.AA for binding to TIGIT was 65 ng/ml.

[2] = molecular target: T2, HA-tagged human TIGIT with mutation H90A, on CHO-K1 cells (human, UniProt Q495A1 22-244); assay: flow cytometry on CHO-K1 cells transiently expressing HA-tagged TIGIT mutant
T2 construct: Built as for m17
T2 sequence: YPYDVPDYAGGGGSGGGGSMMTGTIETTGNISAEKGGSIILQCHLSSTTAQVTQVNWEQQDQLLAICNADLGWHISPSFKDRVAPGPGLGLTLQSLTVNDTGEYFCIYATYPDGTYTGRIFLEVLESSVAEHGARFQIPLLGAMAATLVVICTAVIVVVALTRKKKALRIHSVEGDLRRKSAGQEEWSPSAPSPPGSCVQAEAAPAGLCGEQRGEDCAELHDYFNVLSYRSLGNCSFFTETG
Experimental: (§1) For flow cytometry analysis of the anti-hTIGIT antibody binding epitope, HA-tagged human TIGIT proteins with or without single amino acid mutation were transiently transfected into CHO-K1 cells. After 24 hr, transfected cells were suspended in HBSS buffer (Thermo Fisher Scientific, Cat#14175095), and incubated with HuTIG1-IgG1.AA antibody at varying concentrations in 50 μL volume. After 1 hr incubation at 4° C., cells were washed and a second incubation with 50 μL Alexa488 conjugated anti-human IgG(H+L) secondary antibody (Thermo Fisher Scientific, Cat#A-11013) was performed to detect cells bound by antibody. Cells were incubated with an anti-HA antibody (Sigma, Cat# H7411) as a positive control, and non-transfected CHO-K1 cells were used as a negative control. The cells were analyzed on an Attune NxT Cytometer (Thermo Fisher Scientific) and the data were processed using FlowJo software. For each mutant, the saturating antibody binding MFI (mean fluorescence intensity) were normalized to 100% POC (percent of control), and no primary antibody binding control MFI were normalized to 0% POC. Data were then fit to a four parameter non-linear sigmoidal curve using GraphPad Prism 7 curve fitting using following formula: Y=Bottom+(Top−Bottom)/(1+10^{((Log EC}^₅₀^{-X)*HillSlope)}).
(§2) All of these residues co-locate to one discrete region on the front ([…] structure of the TIGIT IgV extracellular domain (FIG. 28).

[3] = molecular target: T3, HA-tagged human TIGIT with mutation Q35A, on CHO-K1 cells (human, UniProt Q495A1 22-244); assay: as above
T3 construct: Built as for m17
T3 sequence: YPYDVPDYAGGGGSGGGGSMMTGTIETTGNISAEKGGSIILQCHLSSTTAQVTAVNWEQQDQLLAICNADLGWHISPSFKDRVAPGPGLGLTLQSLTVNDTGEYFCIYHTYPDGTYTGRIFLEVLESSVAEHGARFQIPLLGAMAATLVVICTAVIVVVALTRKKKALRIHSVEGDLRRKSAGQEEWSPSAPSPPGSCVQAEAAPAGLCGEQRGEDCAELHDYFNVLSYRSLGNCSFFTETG
Experimental: as §1, §2

[4] = molecular target: T4, extracellular region of human TIGIT fused to FLAG and GPI (hTIGIT-GPI), on the surface of NS0 cells (human); assay: flow cytometry, competition with hCD155-Fc-FITC (125 ng/ml) for NS0-hTIGIT cells
T4 construct: The GPI signal is processed when the anchor is attached; also called NS0-hTIGIT cells
T4 chain: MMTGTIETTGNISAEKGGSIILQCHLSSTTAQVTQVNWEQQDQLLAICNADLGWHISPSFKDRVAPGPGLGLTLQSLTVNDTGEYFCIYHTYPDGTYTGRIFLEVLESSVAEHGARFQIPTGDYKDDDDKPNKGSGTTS
Experimental: The activity of HuTIG1-IgG1.AA to block the interaction between human TIGIT and human CD155 was analyzed by flow cytometry using NS0-hTIGIT cells. […] After washing with FACS Buffer, NS0-hTIGIT cells were subjected to flow cytometry using a FACScan flow cytometer (BD Biosciences, San Jose, Calif.). To examine the binding of hCD155-Fc-FITC on the cells, MCF was obtained at each antibody concentration. […] The half maximal inhibitory concentration (IC₅₀) of HuTIG1-IgG1.AA to block the TIGIT-CD155 interaction was 67 ng/ml.

[5] = molecular target: T5, His-tagged soluble recombinant human TIGIT (Cat # TIT-H52H3; Acro Biosystems) (human, UniProt Q495A1 22-141); assay: SPR (BioRad ProteOn XPR36), antibody captured by anti-human IgG, soluble TIGIT as analyte, 25 °C, 1:1 model
T5 construct: Bought reagent; not shown: His tag
T5 sequence (looked up): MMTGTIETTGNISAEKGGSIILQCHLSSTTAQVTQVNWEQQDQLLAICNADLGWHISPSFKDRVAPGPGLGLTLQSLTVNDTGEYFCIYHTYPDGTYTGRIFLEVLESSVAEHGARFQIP
Experimental: Biosensor studies for HuTIG1-IgG1.AA were run on a BioRad ProteOn XPR36 system in 10 mM HEPES, 150 mM NaCl, pH 7.4, 0.005% Tween-20 and 0.2 mg/ml BSA at 25° C. HuTIG1-IgG1.AA was diluted to 3.7, 1.2 and 0.4 nM and captured for 5 minutes onto a GLM sensor chip coated with ˜10,000 RU of GE's anti-human IgG antibody. His-tagged soluble recombinant human TIGIT (Cat # TIT-H52H3; Acro Biosystems, Newark, Del.) was tested at 100 nM as the highest concentration in a 3-fold dilution series down to 1.2 nM. The data from the three different density antibody surfaces were globally fit to a 1:1 interaction model using a local Rmax.

B1: HuTIG1-IgG1.AA (humanized IgG1/kappa form of TIG1, L234A/L235A) (antibody)
heavy: not shown
light: DIQMTQSPSSLSASVGDRVTITCRASKSISKYLAWYQQKPGKAPKLLIYSGSTLQSGVPSRFSGSGSGTDFTLTISSLQPEDFATYYCQQHNEYPWTFGGGTKVEIKRTVAAPSVFIFPPSDEQLKSGTASVVCLLNNFYPREAKVQWKVDNALQSGNSQESVTEQDSKDSTYSLSSTLTLSKADYEKHKVYACEVTHQGLSSPVTKSFNRGEC
notes: Mature full chains; also called humanized TIG1
- EC50 [1]: 0.065 µg/mL
- fold decrease in binding affinity against wild type human TIGIT [2]: > 10 fold
- fold decrease in binding affinity against wild type human TIGIT [3]: > 10 fold
- IC50 [4]: 0.067 µg/mL
- Kd [5]: 925 pM
- koff [5]: 0.000409 s⁻¹
- kon [5]: 442000 M⁻¹ s⁻¹
